Patent publication US20170226203A1 (Daiichi Sankyo, published 2017)

B1: mouse anti-human Orai1 antibody 14F74 (antibody, mouse IgG1, kappa, V domains shown)
VH: QVQLQQSGAELVRPGSSVKISCKASGYAFSSYWMNWVKQRPGQGLEWIGHIYPGDGDTNYNGKFKGKATLTADKSSSTAYMQLSGLTSEDSAVYFCARSGRLRFAMDYWGQGTSVTVSS
VL: DIVMSQSPSSLAVSAGEKVTMSCKSSQSLLNSRTRKNYLAWYQQKPGQSPKLLIYWASTRESGVPDRFTGSGSGTDFTLTISSVQAEDLAVYYCKQSYNLRTFGGGTKLEIQR
B2: mouse anti-human Orai1 antibody 17F6 (antibody, mouse IgG1, kappa, V domains shown)
VH: QVQLQQSGAELVRPGSSVKISCKASGYAFSSYWMNWVKQRPGQGLEWIGHIYPGDADTNYNGKFKGKATLTADKSSSTAYMHLSSLTSEDSAVYFCSRQLGFRYAMDYWGQGTSVTVSS
VL: DIVMSQSPSSLAVSAGEKVTMSCKSSQSLLNSRTRKNYLAWYQQKPGQSPKLLIYWASTRESGVPDRFTGSGSGTDFTLTISSVQAEDLAVYYCKQSYNLRTFGGGTKLEIKR
B3: affinity maturation antibody hR198_HG1/LG1 (antibody, human IgG1, kappa)
heavy: not shown
light: DIQLTQSPSSLSASVGDRVTITCRASQSIGGSLSWFQQKPGKAPKRLIYSTSTLESGVPSRFSGSGSGTDYTLTISSLQPEDFAMYYCLQFAIFPDSFGQGTKVEIKRTVAAPSVFIFPPSDEQLKSGTASVVCLLNNFYPREAKVQWKVDNALQSGNSQESVTEQDSKDSTYSLSSTLTLSKADYEKHKVYACEVTHQGLSSPVTKSFNRGEC
B4: hR198_HG1-LALA/LG1 (antibody, human IgG1, kappa, L234A L235A)
heavy: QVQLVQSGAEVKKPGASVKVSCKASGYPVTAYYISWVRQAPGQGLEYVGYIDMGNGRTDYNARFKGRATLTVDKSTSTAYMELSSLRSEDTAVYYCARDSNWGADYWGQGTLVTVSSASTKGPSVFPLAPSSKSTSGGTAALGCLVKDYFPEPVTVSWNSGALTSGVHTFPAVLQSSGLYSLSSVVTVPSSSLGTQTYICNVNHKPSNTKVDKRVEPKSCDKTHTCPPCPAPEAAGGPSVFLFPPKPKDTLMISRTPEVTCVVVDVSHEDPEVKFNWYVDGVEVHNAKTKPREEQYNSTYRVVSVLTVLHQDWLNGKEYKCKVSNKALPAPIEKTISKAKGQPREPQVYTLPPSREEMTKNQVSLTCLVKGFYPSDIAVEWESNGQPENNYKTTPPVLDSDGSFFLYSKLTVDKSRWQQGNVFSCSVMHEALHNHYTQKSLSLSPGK
light: DIQLTQSPSSLSASVGDRVTITCRASQSIGGSLSWFQQKPGKAPKRLIYSTSTLESGVPSRFSGSGSGTDYTLTISSLQPEDFAMYYCLQFAIFPDSFGQGTKVEIKRTVAAPSVFIFPPSDEQLKSGTASVVCLLNNFYPREAKVQWKVDNALQSGNSQESVTEQDSKDSTYSLSSTLTLSKADYEKHKVYACEVTHQGLSSPVTKSFNRGEC
B5: humanized anti-human Orai1 antibody hR198_H4/L4 (antibody, human IgG1, kappa, V domains shown)
VH: QVQLVQSGAEVKKPGASVKVSCKASGYPVTAYYISWIRQAPGQGLEYVGYIDMGNGRTNYNARFKGRATLTVDKSTSTAYMELSSLRSEDTAVYYCARDSNWGVDYWGQGTLVTVSS
VL: DIQLTQSPSSLSASVGDRVTITCRASQSIGNSLSWFQQKPGKAVKRLIYSTSTLESGVPSRFSGSGSGTDYTLTISSLQPEDFAMYYCLQFATFPDTFGQGTKVEIKR
notes: Human IgG1 / kappa; also called hH4/L4
B6: mouse anti-human Orai1 antibody 10F8 (antibody, mouse IgG1, kappa, V domains shown)
VH: QVQLQQSGAELVRPGSSVKISCKASGYAFRSYWMNWVKQRPGQGLEWIGHIYPGDGDTNYNGKFKGKATLTADKSSSTAYMQLSSLTSEDSAVYLCGRGGTTVVVDYWGQGTTLTVSS
VL: DIVMSQSPSSLAVSAGEKVTMSCKSSQSLLNSRTRKNYLAWYQQKPGQSPKLLIYWASTRESGVPDRFTGSGSGTDFTLTISSVQAEDLAVYYCKQSYNLPWTFGGGTKLEIKR
B7: human anti-human Orai1 antibody 2C1.1 (antibody, human IgG2, lambda, V domains shown)
VH: QVQLQQWGAGLLKPSETLSLTCAVYGGSFSGYYWSWIRQPPGKGLEWIGEIDHSGSTNYNPALKSRLTISVDTSKNQFSLKLSSVTAADTAVYYCARAGSGGYEDWFDPWGQGTLVTVSS
VL: QSVLTQPPSVSGAPGQRVTISCTGSSSNIGAGYNVHWYQQFPRTDPKLLIYVYNIRPSGVPDRFSGSRSGTSASLAITGLQTEDEADYYCQSYDSSLSGVVFGGGTKLTVLG
B8: human anti-human Orai1 antibody 5H3.1 (antibody, human IgG2, lambda, V domains shown)
VH: QVQLVQSGAEVKKPGASVKVSCKASGYTFTDYYMNWVRQAPGQGLEWMGWINPNSGGTKYAQKFQGRVTMTRDTSIRTAYMELSRLRSDDTAVYYCAREYGGNSDWFDPWGQGTLVTVSS
VL: QSVLTQPPSVSGAPGQRVTISCTGSSSNIGAGYDVHWYQQLPGTAPKLLIYGNSNRPSGVPDRFSGSKSGTSASLAITGLQAEDEADYYCQSYDNRLSDSVVIGGGTKLAVQG
B9: parent antibody Fab hR198_H4/L4-Fab (Fab, V domains shown)
VH: QVQLVQSGAEVKKPGASVKVSCKASGYPVTAYYISWIRQAPGQGLEYVGYIDMGNGRTNYNARFKGRATLTVDKSTSTAYMELSSLRSEDTAVYYCARDSNWGVDYWGQGTLVTVSS
VL: DIQLTQSPSSLSASVGDRVTITCRASQSIGNSLSWFQQKPGKAVKRLIYSTSTLESGVPSRFSGSGSGTDYTLTISSLQPEDFAMYYCLQFATFPDTFGQGTKVEI
notes: Fab of hR198_H4/L4

Legend:
human Orai1 [1] = molecular target: T1, human Orai1 (human, UniProt Q96D31 1-301); test: cell-based or functional assay
T1 sequence (Q96D31 whole entry): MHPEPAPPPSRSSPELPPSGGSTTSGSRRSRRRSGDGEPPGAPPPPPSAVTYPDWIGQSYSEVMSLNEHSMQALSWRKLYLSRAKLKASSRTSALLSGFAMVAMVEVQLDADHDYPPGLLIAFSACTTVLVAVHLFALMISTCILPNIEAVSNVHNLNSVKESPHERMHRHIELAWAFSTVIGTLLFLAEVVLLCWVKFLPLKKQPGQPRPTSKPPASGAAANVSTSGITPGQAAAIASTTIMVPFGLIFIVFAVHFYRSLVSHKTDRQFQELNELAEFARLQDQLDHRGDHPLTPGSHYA

human Orai1 [2] = molecular target: T1, human Orai1; test: flow cytometry, pcDNA3.1-hOrai1 transfected HEK293T cells

Binder | IC50, IFN-γ release from human PBMC treated with PMA and A23187 (human Orai1 [1]) [µg/mL] | IC50, IL-2 release from Jurkat cells treated with PMA and A23187 (human Orai1 [1]) [µg/mL] | IC50, IL-2 release from human PBMC treated with PMA and A23187 (human Orai1 [1]) [µg/mL] | IC80, IFN-γ release from human PBMC treated with PMA and A23187 (human Orai1 [1]) [µg/mL] | IC80, IL-2 release from Jurkat cells treated with PMA and A23187 (human Orai1 [1]) [µg/mL] | IC80, IL-2 release from human PBMC treated with PMA and A23187 (human Orai1 [1]) [µg/mL] | binding result (human Orai1 [2])
B1 | ≥ 0.8 | ≥ 0.08 | ≥ 0.1 | ≥ 300 | ≥ 60 | ≥ 17 | 
B2 | ≥ 0.8 | ≥ 0.08 | ≥ 0.1 | ≥ 300 | ≥ 60 | ≥ 17 | 
B3 | ≤ 0.04 | ≤ 0.01 | ≤ 0.02 | ≤ 2 | ≤ 0.2 | ≤ 0.4 | 
B4 | ≤ 0.04 | ≤ 0.01 | ≤ 0.02 | ≤ 2 | ≤ 0.2 | ≤ 0.4 | 
B5 |  |  |  |  |  |  | binds
B6 | ≥ 0.8 | ≥ 0.08 | ≥ 0.1 | ≥ 300 | ≥ 60 | ≥ 17 | 
B7 | ≥ 0.8 | ≥ 0.08 | ≥ 0.1 | ≥ 300 | ≥ 60 | ≥ 17 | 
B8 | ≥ 0.8 | ≥ 0.08 | ≥ 0.1 | ≥ 300 | ≥ 60 | ≥ 17 | 
B9 |  |  |  |  |  |  | binds
